Results reported in PMC5001930 (Biological psychiatry, 2016).

B1: NTRK3 (receptor)
chain: not shown
B2: SYNGAP1 (natural protein, UniProt F6SEU4 1-1340, looked up)
chain: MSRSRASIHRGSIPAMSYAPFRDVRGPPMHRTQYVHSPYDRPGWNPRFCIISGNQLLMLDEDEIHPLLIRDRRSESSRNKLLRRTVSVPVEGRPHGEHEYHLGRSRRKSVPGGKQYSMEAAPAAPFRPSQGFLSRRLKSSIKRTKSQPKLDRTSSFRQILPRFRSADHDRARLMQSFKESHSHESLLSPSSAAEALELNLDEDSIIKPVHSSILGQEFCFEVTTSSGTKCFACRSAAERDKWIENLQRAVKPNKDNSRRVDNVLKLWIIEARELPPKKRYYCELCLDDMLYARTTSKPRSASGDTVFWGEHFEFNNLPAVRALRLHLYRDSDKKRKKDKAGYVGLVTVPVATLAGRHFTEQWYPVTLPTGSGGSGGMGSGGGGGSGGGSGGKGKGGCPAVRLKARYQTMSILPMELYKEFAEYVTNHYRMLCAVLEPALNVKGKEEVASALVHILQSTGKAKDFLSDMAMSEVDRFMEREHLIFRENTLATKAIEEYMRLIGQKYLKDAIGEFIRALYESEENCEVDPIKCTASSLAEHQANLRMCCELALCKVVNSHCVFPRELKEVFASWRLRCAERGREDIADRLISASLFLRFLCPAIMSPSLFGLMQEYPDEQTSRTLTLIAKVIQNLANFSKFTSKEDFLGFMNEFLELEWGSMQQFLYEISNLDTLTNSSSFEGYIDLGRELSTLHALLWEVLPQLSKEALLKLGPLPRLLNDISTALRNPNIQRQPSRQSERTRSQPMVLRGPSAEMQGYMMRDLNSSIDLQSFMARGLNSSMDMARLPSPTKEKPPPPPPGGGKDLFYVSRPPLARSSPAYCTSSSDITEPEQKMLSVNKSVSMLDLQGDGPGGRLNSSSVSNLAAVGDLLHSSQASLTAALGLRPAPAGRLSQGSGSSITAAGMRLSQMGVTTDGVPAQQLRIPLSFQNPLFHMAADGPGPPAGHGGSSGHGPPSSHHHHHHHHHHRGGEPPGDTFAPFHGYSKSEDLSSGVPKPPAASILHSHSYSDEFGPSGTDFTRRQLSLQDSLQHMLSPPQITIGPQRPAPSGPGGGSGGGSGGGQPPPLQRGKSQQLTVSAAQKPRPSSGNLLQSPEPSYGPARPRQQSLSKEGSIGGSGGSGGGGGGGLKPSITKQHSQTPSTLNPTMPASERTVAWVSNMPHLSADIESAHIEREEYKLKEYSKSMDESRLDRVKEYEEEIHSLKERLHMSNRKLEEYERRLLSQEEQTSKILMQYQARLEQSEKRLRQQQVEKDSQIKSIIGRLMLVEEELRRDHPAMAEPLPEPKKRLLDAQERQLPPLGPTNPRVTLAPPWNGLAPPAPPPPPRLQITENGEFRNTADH
B3: GRM5 (receptor, UniProt Q3UVX5 19-1203, looked up)
chain: SAQSSERRVVAHMPGDIIIGALFSVHHQPTVDKVHERKCGAVREQYGIQRVEAMLHTLERINSDPTLLPNITLGCEIRDSCWHSAVALEQSIEFIRDSLISSEEEEGLVRCVDGSSSFRSKKPIVGVIGPGSSSVAIQVQNLLQLFNIPQIAYSATSMDLSDKTLFKYFMRVVPSDAQQARAMVDIVKRYNWTYVSAVHTEGNYGESGMEAFKDMSAKEGICIAHSYKIYSNAGEQSFDKLLKKLRSHLPKARVVACFCEGMTVRGLLMAMRRLGLAGEFLLLGSDGWADRYDVTDGYQREAVGGITIKLQSPDVKWFDDYYLKLRPETNLRNPWFQEFWQHRFQCRLEGFAQENSKYNKTCNSSLTLRTHHVQDSKMGFVINAIYSMAYGLHNMQMSLCPGYAGLCDAMKPIDGRKLLDSLMKTNFTGVSGDMILFDENGDSPGRYEIMNFKEMGKDYFDYINVGSWDNGELKMDDDEVWSKKNNIIRSVCSEPCEKGQIKVIRKGEVSCCWTCTPCKENEYVFDEYTCKACQLGSWPTDDLTGCDLIPVQYLRWGDPEPIAAVVFACLGLLATLFVTVIFIIYRDTPVVKSSSRELCYIILAGICLGYLCTFCLIAKPKQIYCYLQRIGIGLSPAMSYSALVTKTNRIARILAGSKKKICTKKPRFMSACAQLVIAFILICIQLGIIVALFIMEPPDIMHDYPSIREVYLICNTTNLGVVTPLGYNGLLILSCTFYAFKTRNVPANFNEAKYIAFTMYTTCIIWLAFVPIYFGSNYKIITMCFSVSLSATVALGCMFVPKVYIILAKPERNVRSAFTTSTVVRMHVGDGKSSSAASRSSSLVNLWKRRGSSGETLRYKDRRLAQHKSEIECFTPKGSMGNGGRATMSSSNGKSVTWAQNEKSTRGQHLWQRLSVHINKKENPNQTAVIKPFPKSTESRGQGAGAGGGSGPGAAGAGSAGCTATGGPEPPDAGPKALYDVAEAEERFPAAARPRSPSPISTLSHLAGSAGRTDDDAPSLHSETAARSSSSQGSLMEQISSVVTRFTANITELNSMMLSTAAAPGPPGTPICSSYLIPKEIQLPTTMTTFAEIQPLPAIEVTGGAQPATGPSPAQETPAGAEAAPGKPDLEELVALTPPSPFRDSVDSGSTTPNSPVSESALCIPSSPKYDTLIIRDYTQSSSSL

Target: MET receptor tyrosine kinase (mouse (endogenous in neocortical …, UniProt P16056 25-1379))
Test: co-IP

Binder	mean fold change (HGF/PBS) of binding [fold]
B1	0.95
B2	0.63
B3	1.35
